Experimental data reported in patent US20250027068.

Target: pooled human IgG

B1: PRT-22 (protein)
chain: MANQEIRYSEVTPYHVTSVWTKGVTPPANFTQGEDVFHAPYVANQGWYDITKTFNGKDDLLCGAATAGNMLHWWFDQNKDQIERYLKEHPEKQKINFNGEQMFDVKEAIDTKNSQLDSKLFEYFKEKAFPYLSTKHLGVFPDHVIDMFINGYRLSLTNHGPTPVKEGSKDPRGGIFDAVFTRGDQSKLLTSRHDFKEKNLKEISDLIKKELTEGKALGLSHTYANVRINHVINLWGADFDSNGNLKAIYVTDSDSNASIGMKKYFVGVNSAGKVAISAKEIKEDNIGAQVLGLFTLSTGQDIWNQTN
  Enzyme Activity Endpoint Assay: Fab′2: 37 ng/µL
  Enzyme Activity Endpoint Assay: Fc: 116 ng/µL
  Enzyme Activity Endpoint Assay: IgG: 19 ng/µL
  Enzyme Activity Endpoint Assay: scIgG: 23 ng/µL

B2: PRT-229 (protein)
chain: MEVVEVWPYGQNPNGKTEILSQTEDSESLQRLRDIEDFQAEKKKQNVVYTKWLDGVDVKDHDFRKIVDGNIAYYATPLLNGRGFYDINKDFNRDSDKCAAAVAANMFHYWLDINRDNVDRFLRQNPEKHGIIELPDGQLKLSDFLNTYESDHGYRDKSKLFDFISNNFNGPVWTDKLLDNYINGYAYNYKYGRTIEDPTKNTSKINFFKEVFNEKILTNNHSIRNQNEFSVLLSEALYTGKAIGLSYGPAGLRHSLGHIISVWGADLDADGNVVAIYVTDSDDKKLTIGDERVGLKRYKISTDDENRLRLTAYEETHNTGGQIRGLWTLDTGKYAWADYFDKTEQTGTDQAEQLEHHHHHH
  Enzyme Activity Endpoint Assay (purified): Fab'2: 691 ng/µL
  Enzyme Activity Endpoint Assay (purified): Fc: 243 ng/µL
  Enzyme Activity Endpoint Assay (purified): IgG: 1270 ng/µL
  Enzyme Activity Endpoint Assay (purified): scIgG: 294 ng/µL

B3: PRT-238 (protein)
chain: MEVVEVWPYGQNPNGKTEILSQTEDSESLQRLRDIEDFQAEKKMQNVVYTKWLDGVDVKDHDFRKIVDGGIAYYATPLLNGRGFYDINKDFNRDSDLCAAAVAANMFHYWLDINRDNVDRFLRQNPEKHGIIELPDGQLKLSDFLNTYESDHGYRDKSKLFDYISNNFNGPVWTDKLLDNYINGYGYNYKYGRTIEDPTKNTSKINFFKEVFNEKILTNNHSIRNQNEFSVLLSEALYTGKAIGLSYGPAGLRHSLGHIISVWGADLDADGNVVAIYVTDSDDKKLTIGDERVGLKRYKISTDDENRLRLTAYEETHNTGGQIRGLWTLDTGKYAWADYFDKTEQTGTDQAEQLEHHHHHH
  Enzyme Activity Endpoint Assay (purified): Fab'2: 0 ng/µL
  Enzyme Activity Endpoint Assay (purified): Fc: 81 ng/µL
  Enzyme Activity Endpoint Assay (purified): IgG: 1610 ng/µL
  Enzyme Activity Endpoint Assay (purified): scIgG: 28 ng/µL

B4: PRT-235 (protein)
chain: MEVVEVWPYGQNPNGKTEILSQTEDSESLQRLRDIEDFQAEKKMQNVVYTKWLDGVDVKDHDFRKIVDGNIAYYATPLLNGRGFYDINKDFNRDSDKCAAAVAANMFHYWLDINRDNVDRFLRQNPEKHGIIELPDGQLKLSDFLNTYESDHGYRDKSKLFDFISNNFNGPVWTDKLLDNYINGYAYNYKYGRTIEDPTKNTSKINFFKEVFNEKILTNNHSIRNQNEFSVLLSEALYTGKAIGLSYGPAGLRHSLGHIISVWGADLDADGNVVAIYVTDSDDKKLTIGDERVGLKRYKISTDDENRLRLTAYEETDNTGGQIRGLWTLDTGKYAWADYFDKTEQTGTDQAEQLEHHHHHH
  Enzyme Activity Endpoint Assay (purified): Fab'2: 116 ng/µL
  Enzyme Activity Endpoint Assay (purified): Fc: 448 ng/µL
  Enzyme Activity Endpoint Assay (purified): IgG: 711 ng/µL
  Enzyme Activity Endpoint Assay (purified): scIgG: 483 ng/µL

B5: PRT-233 (protein)
chain: MEVVEVWPYGQNPNGKTEILSQTEDSESLQRLRDIEDFQAEKKMQNVVYTKWLDGVDVKDHDFRKIVDGNIAYYATPLLNGRGFYDINKDFNRDSDKCAAAVAANMFHYWLDRNRDNVDRFLRQNPEKHGIIELPDGQLKLSDFLNTYESDHGYRDKSKLFDFISNNFNGPVWTDKLLDNYINGYAYNYKYGRTIEDPTKNTSKINFFKEVFNEKILTNNHSIRNQNEFSVLLSEALYTGKAIGLSYGPAGLRHSLGHIISVWGADLDADGNVVAIYVTDSDDKKLTIGDERVGLKRYKISTDDENRLRLTAYEETHNTGGQIRGLWTLDTGKYAWADYFDKTEQTGTDQAEQLEHHHHHH
  Enzyme Activity Endpoint Assay (purified): Fab'2: 94 ng/µL
  Enzyme Activity Endpoint Assay (purified): Fc: 376 ng/µL
  Enzyme Activity Endpoint Assay (purified): IgG: 596 ng/µL
  Enzyme Activity Endpoint Assay (purified): scIgG: 415 ng/µL

B6: PRT-234 (protein)
chain: MEVVEVWPYGQNPNGKTEILSQTEDSESLQRLRDIEDFQAEKKMQNVVYTKWLDGVDVKDHDFRKIVDGNIAYYATPLLNGRGFYDINKDFNRDSDKCAAAVAANMFHYWLDINRDNVDRFLRQNPEKHGIIELPDGQLKLSDFLNTYESDDGYRDKSKLFDFISNNFNGPVWTDKLLDNYINGYAYNYKYGRTIEDPTKNTSKINFFKEVFNEKILTNNHSIRNQNEFSVLLSEALYTGKAIGLSYGPAGLRHSLGHIISVWGADLDADGNVVAIYVTDSDDKKLTIGDERVGLKRYKISTDDENRLRLTAYEETHNTGGQIRGLWTLDTGKYAWADYFDKTEQTGTDQAEQLEHHHHHH
  Enzyme Activity Endpoint Assay (purified): Fab'2: 88 ng/µL
  Enzyme Activity Endpoint Assay (purified): Fc: 376 ng/µL
  Enzyme Activity Endpoint Assay (purified): IgG: 640 ng/µL
  Enzyme Activity Endpoint Assay (purified): scIgG: 432 ng/µL

B7: PRT-232 (protein)
chain: MEVVEVWPYGQNPNGKTEILSQTEDSESLQRLRDIEDFQAEKKMQNVVYTKWLDGVDVKDHDFRKIVDGNIAYYATPLLNGRGFYDINKDFNRDSDKCAAAVAANMFHYWLDINRDNVDRFLRQNPEKHGIIELPDGQLKLSDFLNTYESDHGYRDKSKLFDFISNNFNGPVWTDKLLDNYINGYAYNYKYGRTIEDPTKNTSKINFFKEVFNEKILTNNHSIRNQNEFSVLLSEALYTGKAIGLSYGPAGLRHSLGHIISVWGADLDADGNVVAIYVTDSDDKKLTIGDERVGLKRYKISTDDENRLRLTAYEETHNTGGQIRGLWTLDTGKEAWADYFDKTEQTGTDQAEQLEHHHHHH
  Enzyme Activity Endpoint Assay (purified): Fab'2: 40 ng/µL
  Enzyme Activity Endpoint Assay (purified): Fc: 283 ng/µL
  Enzyme Activity Endpoint Assay (purified): IgG: 624 ng/µL
  Enzyme Activity Endpoint Assay (purified): scIgG: 393 ng/µL

B8: PRT-231 (protein)
chain: MEVVEVWPYGQNPNGKTEILSQTEDSESLQRLRDIEDFQAEKKMQNVVYTKWLDGVDVKDHDFRKIVDGNIAYYATPLLNGRGFYDINKDFNRDSDKCAAAVAANMFHYWLDINRDNVDRFLRQNPEKHGIIELPDGQLKLSDFLNTYESDHGYRDKSKLFDFISNNFNGPVWTDKLLDNYINGYAYNYKYGRTIEDPTKNTSKINFFKEVFNEKILTNNHSIRNQNEFSVLLSEALYTGKAIGLSYGPAGLRHSLGHIISVWGADLDADGNVVAIYVTDSDDKKLTIGDERVGLKRYKISTDDENRARLTAYEETHNTGGQIRGLWTLDTGKYAWADYFDKTEQTGTDQAEQLEHHHHHH
  Enzyme Activity Endpoint Assay (purified): Fab'2: 176 ng/µL
  Enzyme Activity Endpoint Assay (purified): Fc: 388 ng/µL
  Enzyme Activity Endpoint Assay (purified): IgG: 465 ng/µL
  Enzyme Activity Endpoint Assay (purified): scIgG: 313 ng/µL

B9: PRT-230 (protein)
chain: MEVVEVWPYGQNPNGKTEILSQTEDSESLQRLRDIEDFQAEKKMQNVVYTKWLDGVDVKDHDFRKIVDGNIAYYATPLLNGRGFYDINKDFNRDSDKCAAAVAANMFHYWLDINRDNVDRFLRQNPEKHGIIELPDGQLKLSDFLNTYESDNGYRDKSKLFDFISNNFNGPVWTDKLLDNYINGYAYNYKYGRTIEDPTKNTSKINFFKEVFNEKILTNNHSIRNQNEFSVLLSEALYTGKAIGLSYGPAGLRHSLGHIISVWGADLDADGNVVAIYVTDSDDKKLTIGDERVGLKRYKISTDDENRLRLTAYEETHNTGGQIRGLWTLDTGKYAWADYFDKTEQTGTDQAEQLEHHHHHH
  Enzyme Activity Endpoint Assay (purified): Fab'2: 699 ng/µL
  Enzyme Activity Endpoint Assay (purified): Fc: 454 ng/µL
  Enzyme Activity Endpoint Assay (purified): IgG: 513 ng/µL
  Enzyme Activity Endpoint Assay (purified): scIgG: 396 ng/µL

B10: PRT-236 (protein)
chain: MEVVEVWPYGQNPNGKTEILSQTEDSESLQRLRDIEDFQAEKKMQNVVYTKWLDGVDVDDHDFRKIVDGNIAYYATPLLNGRGFYDINKDFNRDSDKCAAAVAANMFHYWLDINRDNVDRFLRQNPEKHGIIELPDGQLKLSDFLNTYESDHGYRDKSKLFDFISNNFNGPVWTDKLLDNYINGYAYNYKYGRTIEDPTKNTSKINFFKEVFNEKILTNNHSIRNQNEFSVLLSEALYTGKAIGLSYGPAGLRHSLGHIISVWGADLDADGNVVAIYVTDSDDKKLTIGDERVGLKRYKISTDDENRLRLTAYEETHNTGGQIRGLWTLDTGKYAWADYFDKTEQTGTDQAEQLEHHHHHH
  Enzyme Activity Endpoint Assay (purified): Fab'2: 294 ng/µL
  Enzyme Activity Endpoint Assay (purified): Fc: 615 ng/µL
  Enzyme Activity Endpoint Assay (purified): IgG: 594 ng/µL
  Enzyme Activity Endpoint Assay (purified): scIgG: 472 ng/µL

B11: PRT-237 (protein)
chain: MEVVEVWPYGQNPNGKTEILSQTEDSESLQRLRDIEDFQAEKKMQNVVYTKWLDGVDVKDHDFRKIVDGNIEYYATPLLNGRGFYDINKDFNRDSDKCAAAVAANMFHYWLDINRDNVDRFLRQNPEKHGIIELPDGQLKLSDFLNTYESDHGYRDKSKLFDFISNNFNGPVWTDKLLDNYINGYAYNYKYGRTIEDPTKNTSKINFFKEVFNEKILTNNHSIRNQNEFSVLLSEALYTGKAIGLSYGPAGLRHSLGHIISVWGADLDADGNVVAIYVTDSDDKKLTIGDERVGLKRYKISTDDENRLRLTAYEETHNTGGQIRGLWTLDTGKYAWADYFDKTEQTGTDQAEQLEHHHHHH
  Enzyme Activity Endpoint Assay (purified): Fab'2: 828 ng/µL
  Enzyme Activity Endpoint Assay (purified): Fc: 415 ng/µL
  Enzyme Activity Endpoint Assay (purified): IgG: 685 ng/µL
  Enzyme Activity Endpoint Assay (purified): scIgG: 461 ng/µL

B12: PRT-239 (protein)
chain: MEVVEVWPYGQNPNGKTEILSQTEDSESLQRLRDIEDFQAEKKMQNVVYTKWLDGVDVKDHDFRKIVDGGTAYYATPLLNGRGFYDINKDFNRDSLLCSAAVAANMFHYWLDINRDNVDRFLRQNPEKHGIIELPDGQLKLSDFLNTYESDHGYRDKSKLFDYISNNFNGGLWTDKLLDNYINGYGYNKKYGRTIEDPTKNTSKINFFKEVFNEKILTNNHQIRNQNEFSVLLSEALYTGKAIGLSYGPAGLRHSLGHIISVWGADLDADGNVVAIYVTDSDDKKLTIGDERVGLKRYKISTDDNNRLRLTAYEETHNTGGQIRGLWTLDTGKYAWADYFDKTEQTGTDQAEQLEHHHHHH
  Enzyme Activity Endpoint Assay (purified): Fab'2: 49 ng/µL
  Enzyme Activity Endpoint Assay (purified): Fc: 269 ng/µL
  Enzyme Activity Endpoint Assay (purified): IgG: 689 ng/µL
  Enzyme Activity Endpoint Assay (purified): scIgG: 360 ng/µL

B13: PRT-21 (protein)
chain: MANQEIRYSEVSPSTVTSVWTKGVTPPTNFTYGEDVLHAPYVANQGWYDITKTFNGKDDLLCGAATAGNMLHWWFDQNKEQIENYLKKHPEKQKINFNGEQMFDVKEAIDTKDSQLDSKLFEYFKEKAFPYLSTKHLGVFPDHVIDMFINGYRLSLTNHGPTPVKRGSKDPRGGIFDAVFTRGDQSKLLTNRHDFKEKTLKEISDLIKQELTEGKALGISHTYANVRINHVINLWGADFDAEGNLEAIYVTDSDSNASIGMKKYFVGVNSNGKVAISAKEIEEDNIGAQVLGLFTLSTGQDIWNQTN
  Enzyme Activity Endpoint Assay: Fab′2: 33 ng/µL
  Enzyme Activity Endpoint Assay: Fc: 111 ng/µL
  Enzyme Activity Endpoint Assay: IgG: 23 ng/µL
  Enzyme Activity Endpoint Assay: scIgG: 28 ng/µL
